According to publication PMC6703430, “Combining Mutations That Inhibit Two Distinct Steps of the ATP Hydrolysis Cycle Restores Wild-Type Function in the Lipopolysaccharide Transporter and Shows that ATP Binding Triggers Transport” (mBio, 2019):

Target: the molecule itself
Assay: crystal structure; ATP-bound His8-LptB^E163Q, 1.96 Å; hanging drops, reservoir 28% PEG 4000, 100 mM MES pH 6.75, 600 mM NaCl; space group C222(1)

B1: His8-LptB^E163Q (enzyme, E. coli, UniProt P0A9V1 1-241, looked up)
chain: MATLTAKNLAKAYKGRRVVEDVSLTVNSGEIVGLLGPNGAGKTTTFYMVVGIVPRDAGNIIIDDDDISLLPLHARARRGIGYLPQEASIFRRLSVYDNLMAVLQIRDDLSAEQREDRANELMEEFHIEHLRDSMGQSLSGGERRRVEIARALAANPKFILLDQPFAGVDPISVIDIKRIIEHLRDSGLGVLITDHNVRETLAVCERAYIVSQGHLIAHGTPTEILQDEHVKRVYLGEDFRL
notes: catalytically dead E163Q variant; the CTD is fully resolved up to L241, the last residue of LptB; A TEV protease cleavage site stands between the His8 tag and LptB; no TEV cleavage is described; also called His8TEV-LptB(E163Q); His-LptB(E163Q); source: E. coli KRX, pET28b(+)-His8TEV-LptB(E163Q), purified (Ni-NTA, gel filtration on Superdex 200); not shown: His8, N-terminal, kept
stoichiometry N: 2
